Blank lines part the entries; values can stand above or below the binder they belong to. Numbered stars: 1 amine (or outer) side, 2 acyl side, 3 side chain; on linkers, the order of the positions; unused ones are H or OH. Bridge positions count the residues as written; N and C are the ends. Side chains are listed from the residue outwards. Ends that are not written are not given here. * marks the point of attachment. C20 diacid = O=C(O)CCCCCCCCCCCCCCCCCCC(=O)*; γGlu = O=C(O)[C@H](CCC(=O)[*:2])N[*:1]
What was measured:
[1] = molecular target: T1, human calcitonin receptor (human, UniProt P30988 25-474); experiment: IC50 at hCTR divided by IC50 at hAmylin-R (SPA competition assays V and VII)
T1 construct: whole, on cells; Assayed as cell membranes of BHK tk'ts 13 cells stably transfected with the human calcitonin receptor (Assay VII); also called hCTR; hCT
T1 sequence (looked up): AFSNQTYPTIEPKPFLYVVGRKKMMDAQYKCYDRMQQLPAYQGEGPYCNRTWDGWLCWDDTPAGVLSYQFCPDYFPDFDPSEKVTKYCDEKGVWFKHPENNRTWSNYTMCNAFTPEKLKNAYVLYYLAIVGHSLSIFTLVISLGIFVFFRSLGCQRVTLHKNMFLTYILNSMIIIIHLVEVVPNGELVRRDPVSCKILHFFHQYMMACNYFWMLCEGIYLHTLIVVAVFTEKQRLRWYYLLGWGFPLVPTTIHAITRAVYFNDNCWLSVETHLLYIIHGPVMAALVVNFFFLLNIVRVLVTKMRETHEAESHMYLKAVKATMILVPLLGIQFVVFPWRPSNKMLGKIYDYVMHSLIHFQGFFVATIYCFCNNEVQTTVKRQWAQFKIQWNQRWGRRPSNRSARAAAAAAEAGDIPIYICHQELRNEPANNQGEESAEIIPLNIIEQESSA
In short: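 Membranes (35 ng/μL final) + SPA beads, 50 mM Hepes pH 7.4 buffer with 1 mM CaCl2, 5 mM MgCl₂, 0.1% OA, 0.02% Tween20; 120 min, 25° C, shaking; centrifuged, counted; IC₅₀ by one-site binding competition.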

[2] = molecular target: T1, human calcitonin receptor; experiment: SPA competition vs 125I-calcitonin, membranes of BHK cells with human calcitonin receptor (Assay VII)
In short: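 BHK hCTR membranes 35 ng/μL + SPA beads 0.05 mg/well; buffer 50 mM Hepes pH 7.4, 1 mM CaCl2, 5 mM MgCl₂, 0.1% OA, 0.02% Tween20. 120 min, 25° C., shaking. Scintillation count; IC50 by one-site binding competition.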

[3] = molecular target: T2, human amylin receptor (amylin 3(a) receptor: human calcitonin receptor co-expressed with RAMP-3) (human, UniProt P30988 25-474; O60896 24-148, limits assumed); experiment: SPA competition vs 125I-rat amylin, membranes of BHK cells with human amylin 3(a) receptor (Assay V)
T2 construct: whole, on cells; Assayed as cell membranes of BHK570 Amylin 3(a)/CRE-luc cells (Assay V); also called hAmylin-R; hAmylinR
T2 sequence (looked up) 1: T1 sequence (looked up)
T2 sequence (looked up) 2: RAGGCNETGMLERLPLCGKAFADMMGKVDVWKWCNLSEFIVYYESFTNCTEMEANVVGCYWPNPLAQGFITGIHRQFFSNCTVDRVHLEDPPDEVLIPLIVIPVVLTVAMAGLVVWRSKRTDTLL
Procedure: The binding assay was performed using scintillation proximity assay (SPA) beads (RPNQ0001) from PerkinElmer and cell membranes from the Amylin 3(a)/CRE-luc cells (as described in Assay (II)) were used. Membranes were prepared in the following way; the cells were rinsed with PBS and incubated with Versene for approximately 5 min before harvesting. The cells were flushed with PBS and the cell-suspension was centrifuged for 5 min at 1000 rpm. Cells were homogenized (ultrathurrax) in a buffer containing 20 mM Na-HEPES and 10 mM EDTA (pH 7.4) and centrifuged at 20.000 rpm for 15 min. The resulting pellet was resuspended, homogenized and centrifuged (20.000 rpm, 15 min) in a buffer containing 20 mM Na-HEPES and 0.1 mM EDTA (pH 7.4, buffer 2). The resulting pellet was resuspended in buffer 2 and protein concentration was measured (BCA protein Assay, Pierce). The homogenate was kept cold during the whole procedure. The membranes were kept at −80° C. until use. The assay was performed in a 384 well Optiplate (PerkinElmer) in a total volume of 40 ul. Membranes were mixed with SPA beads. Final concentration of membranes 35 ng/μL final and SPA beads was 0.05 mg/well. […] Samples were analyzed on TopCounter™ (Packard). The IC₅₀ was calculated using (one site binding competition analysis) GraphPad Prism5 as a measure of receptor affinity.

[4] = molecular target: T3, human calcitonin receptor (human, UniProt P30988 25-474); experiment: cell-based or functional assay
T3 sequence (looked up): T1 sequence (looked up)

[5] = molecular target: T4, human amylin 3(a) receptor (human calcitonin receptor co-expressed with RAMP-3) (human, UniProt P30988 25-474; O60896 24-148, limits assumed); experiment: cell-based or functional assay
T4 sequence (looked up) 1: T1 sequence (looked up)
T4 sequence (looked up) 2: T2 sequence (looked up) 2

[6] = molecular target: T5, human calcitonin receptor (human, UniProt P30988 25-474); experiment: cell-based or functional assay; remark: listed apart in the source
T5 sequence (looked up): T1 sequence (looked up)

rat calcitonin receptor = molecular target: T6, rat calcitonin receptor (rat, UniProt P32214 25-516); experiment: SPA competition binding, displacement of 125I-calcitonin from membranes of BHK tk'ts 13 cells with rat calcitonin receptor (Assay VIII)
T6 construct: whole, on cells; Used as membranes prepared from transiently transfected BHK tk'ts 13 cells (Assay VIII); also called rCTR; rat calcitonin (a) receptor
T6 sequence (looked up): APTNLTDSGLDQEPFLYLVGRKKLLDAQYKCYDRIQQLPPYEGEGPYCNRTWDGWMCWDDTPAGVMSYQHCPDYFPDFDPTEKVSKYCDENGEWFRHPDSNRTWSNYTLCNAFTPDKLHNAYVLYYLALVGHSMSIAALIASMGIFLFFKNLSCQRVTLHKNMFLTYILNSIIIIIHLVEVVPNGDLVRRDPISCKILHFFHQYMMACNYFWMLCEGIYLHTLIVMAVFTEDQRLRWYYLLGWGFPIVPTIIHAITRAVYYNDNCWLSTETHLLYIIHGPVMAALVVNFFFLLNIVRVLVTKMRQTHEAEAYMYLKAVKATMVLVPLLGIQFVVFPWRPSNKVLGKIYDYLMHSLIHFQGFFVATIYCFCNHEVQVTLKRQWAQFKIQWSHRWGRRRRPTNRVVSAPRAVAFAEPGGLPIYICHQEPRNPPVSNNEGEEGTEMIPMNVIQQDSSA

B1: N{-1}-[(4S)-4-carboxy-4-(19-carboxynonadecanoylamino)butanoyl]-Gly[Arg1,His14,Arg17,Pro21,Pro27]-h-amylin (peptide)
peptide: {C20 diacid-γGlu}-GRCNTATCATQRLAHFLRHSSPNFGAIPSSTNVGSNTY-NH2
modifications: disulfide 3-8
SMILES: CC[C@H](C)[C@H](NC(=O)[C@H](C)NC(=O)CNC(=O)[C@H](Cc1ccccc1)NC(=O)[C@H](CC(N)=O)NC(=O)[C@@H]1CCCN1C(=O)[C@H](CO)NC(=O)[C@H](CO)NC(=O)[C@H](Cc1c[nH]cn1)NC(=O)[C@H](CCCNC(=N)N)NC(=O)[C@H](CC(C)C)NC(=O)[C@H](Cc1ccccc1)NC(=O)[C@H](Cc1c[nH]cn1)NC(=O)[C@H](C)NC(=O)[C@H](CC(C)C)NC(=O)[C@H](CCCNC(=N)N)NC(=O)[C@H](CCC(N)=O)NC(=O)[C@@H](NC(=O)[C@H](C)NC(=O)[C@@H]1CSSC[C@H](NC(=O)[C@H](CCCNC(=N)N)NC(=O)CNC(=O)CC[C@H](NC(=O)CCCCCCCCCCCCCCCCCCC(=O)O)C(=O)O)C(=O)N[C@@H](CC(N)=O)C(=O)N[C@@H]([C@@H](C)O)C(=O)N[C@@H](C)C(=O)N[C@@H]([C@@H](C)O)C(=O)N1)[C@@H](C)O)C(=O)N1CCC[C@H]1C(=O)N[C@@H](CO)C(=O)N[C@@H](CO)C(=O)N[C@H](C(=O)N[C@@H](CC(N)=O)C(=O)N[C@H](C(=O)NCC(=O)N[C@@H](CO)C(=O)N[C@@H](CC(N)=O)C(=O)N[C@H](C(=O)N[C@@H](Cc1ccc(O)cc1)C(N)=O)[C@@H](C)O)C(C)C)[C@@H](C)O
notes: also called compound 99
Ratio hCT/hAmylin binding [1]: 100
IC50 [2]: 35 nM
IC50 [3]: 0.348 nM

B3: N^α1-[(4S)-4-carboxy-4-(19-carboxynonadecanoylamino)butanoyl]-[Glu14,Arg17,Pro21,Pro27,His34]-h-amylin (peptide)
peptide: {C20 diacid-γGlu}-KCNTATCATQRLAEFLRHSSPNFGAIPSSTNVGHNTY-NH2
modifications: disulfide 2-7
SMILES: CC[C@H](C)[C@H](NC(=O)[C@H](C)NC(=O)CNC(=O)[C@H](Cc1ccccc1)NC(=O)[C@H](CC(N)=O)NC(=O)[C@@H]1CCCN1C(=O)[C@H](CO)NC(=O)[C@H](CO)NC(=O)[C@H](Cc1c[nH]cn1)NC(=O)[C@H](CCCNC(=N)N)NC(=O)[C@H](CC(C)C)NC(=O)[C@H](Cc1ccccc1)NC(=O)[C@H](CCC(=O)O)NC(=O)[C@H](C)NC(=O)[C@H](CC(C)C)NC(=O)[C@H](CCCNC(=N)N)NC(=O)[C@H](CCC(N)=O)NC(=O)[C@@H](NC(=O)[C@H](C)NC(=O)[C@@H]1CSSC[C@H](NC(=O)[C@H](CCCCN)NC(=O)CC[C@H](NC(=O)CCCCCCCCCCCCCCCCCCC(=O)O)C(=O)O)C(=O)N[C@@H](CC(N)=O)C(=O)N[C@@H]([C@@H](C)O)C(=O)N[C@@H](C)C(=O)N[C@@H]([C@@H](C)O)C(=O)N1)[C@@H](C)O)C(=O)N1CCC[C@H]1C(=O)N[C@@H](CO)C(=O)N[C@@H](CO)C(=O)N[C@H](C(=O)N[C@@H](CC(N)=O)C(=O)N[C@H](C(=O)NCC(=O)N[C@@H](Cc1c[nH]cn1)C(=O)N[C@@H](CC(N)=O)C(=O)N[C@H](C(=O)N[C@@H](Cc1ccc(O)cc1)C(N)=O)[C@@H](C)O)C(C)C)[C@@H](C)O
notes: Synthetic acylated analogue of human amylin; also called compound 17
hCTR funct. EC50 (CRE luciferase reporter, BHK cells) [6]: 2350 pM

B4: N^α1-[(4S)-4-carboxy-4-(19-carboxynonadecanoylamino)butanoyl]-[Arg17,Pro21,Pro27,His34]-h-amylin (peptide)
peptide: KCNTATCATQRLANFLRHSSPNFGAIPSSTNVGHNTY
modifications: C20 diacid-gGlu on the alpha amino group of N-terminal Lys1; disulfide bridge Cys2-Cys7 and C-terminal amide as in human amylin
notes: Synthetic acylated analogue of human amylin; also called compound 40
hCTR funct. EC50 (CRE luciferase reporter, BHK cells) [6]: 2680 pM

Next, values leading:

hCTR funct. EC50 (pM) [4]: 102 pM
Ratio hCT/hAmylin funct. [5]: 0.8
Binder: K([γGlu-γGlu-C20 diacid])CNTATCATQRLAEFLRHSSPNFGAIPSSTNVGPETP-NH2 (disulfide 2-7 (inferred))

Ratio hCT/hAmylin binding [1]: 51.6
IC50 [2]: 4.63 nM
IC50 [3]: 0.09 nM
B2: N^ε1-[(4S)-4-carboxy-4-(19-carboxynonadecanoylamino)butanoyl]-[His14,Arg17,Pro21,Pro27,Pro34]-h-amylin (peptide)
peptide: K([γGlu-C20 diacid])CNTATCATQRLAHFLRHSSPNFGAIPSSTNVGPNTY-NH2
modifications: disulfide 2-7; N-terminus assumed
SMILES: CC[C@H](C)[C@H](NC(=O)[C@H](C)NC(=O)CNC(=O)[C@H](Cc1ccccc1)NC(=O)[C@H](CC(N)=O)NC(=O)[C@@H]1CCCN1C(=O)[C@H](CO)NC(=O)[C@H](CO)NC(=O)[C@H](Cc1c[nH]cn1)NC(=O)[C@H](CCCNC(=N)N)NC(=O)[C@H](CC(C)C)NC(=O)[C@H](Cc1ccccc1)NC(=O)[C@H](Cc1c[nH]cn1)NC(=O)[C@H](C)NC(=O)[C@H](CC(C)C)NC(=O)[C@H](CCCNC(=N)N)NC(=O)[C@H](CCC(N)=O)NC(=O)[C@@H](NC(=O)[C@H](C)NC(=O)[C@@H]1CSSC[C@H](NC(=O)[C@@H](N)CCCCNC(=O)CC[C@H](NC(=O)CCCCCCCCCCCCCCCCCCC(=O)O)C(=O)O)C(=O)N[C@@H](CC(N)=O)C(=O)N[C@@H]([C@@H](C)O)C(=O)N[C@@H](C)C(=O)N[C@@H]([C@@H](C)O)C(=O)N1)[C@@H](C)O)C(=O)N1CCC[C@H]1C(=O)N[C@@H](CO)C(=O)N[C@@H](CO)C(=O)N[C@H](C(=O)N[C@@H](CC(N)=O)C(=O)N[C@H](C(=O)NCC(=O)N1CCC[C@H]1C(=O)N[C@@H](CC(N)=O)C(=O)N[C@H](C(=O)N[C@@H](Cc1ccc(O)cc1)C(N)=O)[C@@H](C)O)C(C)C)[C@@H](C)O
notes: also called compound 67

IC50 (rat calcitonin receptor): 30.9 nM
Binder: KCNTATCATQRLADFLRHSSPNFGAIPSSTNVGSRTY-NH2 (disulfide 2-7 (inferred)) [[Asp14,Arg17,Pro21,Pro27,Arg35]-h-amylin]
